Source: the nanobody polyreactivity screen of Harvey et al. (2022)

Experiment: yeast display, Sf9 membrane polyspecificity reagent, FACS + sequencing; frameworks hold sequencing errors
Outline: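 Polyreactivity labels are assigned by the sorting gate from which each nanobody was recovered. The gates were low and high (top ~1%), set on anti-HA fluorescence for expression and streptavidin fluorescence for reagent binding. Before sorting, galactose-induced (36–48 hours) yeast display cells were stained for 1 hour at 4 °C with 10% biotinylated, detergent-solubilized Sf9 membrane reagent.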

| Sequence | polyreactivity (PSR sort gate) |
| --- | --- |
| QVQLEESGGGLVQAGGSLRLICAASGSIFYQYPMGWYRQAPGKERELVAGITWSGGSTYYADSVKGRFTISRDNAKNTVYLQMNSLKPEDTAVYYCAAQYFCYVYSYDYWGQGTQVTVSS | high polyreactivity |
| QVQLVESGGGLVQAGGSLRLSCAASGSTFPSNAMGGYRQAPGKARELDAAISDSGSTTYYADSVKGRFTISRDNAKNTVYLQMNSLKPEDTAVYYCNADWWQYDFVFWTFGYDDWGQGTQVTLSS | low polyreactivity |
| QVQLVESGGGLVQAGGSLRLSCAASGRIFNRNVMGWYRQAPGKERELVAAISYGTGSTYYADSVKGRFTISRDNAKNTVYLQMNSLKPEDTAVYYCATRYRVRDDGEYDYWGHGTQVTVSS | high polyreactivity |
| QVQLVESGGGLVQAGGSLRLSCAASGYTFYQYAMGWYRQAPGKESELVADISRSGVSTYYADSVKGRFTISRDNAKNTVYLQMNSLKPEDTAVYYCAARRPFYRQLDYWGQGTQVTVSS | high polyreactivity |
| QVQLVESGGGLVQAGGSLRLSCAASGFTFYRNTMGWYRQAPGKERELVATITFSGTRTYYADSVKGRFTISRDNAKNTVYLQMNSLKPEDTAVYYCNRVRYRQSAFDFWGQGTQVTVSS | high polyreactivity |
| QVQLVESGGGLVQAGGSLRLSCAASGSILYPYAMGWYRQAPGKERELVAAIRSRGGSTYYADSVKGRFTISRDNAKNTGYLQMNSLKPEDTAVYYCAAGSTRARFDYWGQGTQVTVSS | high polyreactivity |
| QVQLQESGGGLVQAGGSLRLSCASSGSISGPHVMGWYRQAPGKEREFVAAINVGANTYYADNVKGRFTISRDNAKNTVYLQMNSLKPEDTAVYYCAAVYYGDIGHEYWGQGTQVTVSC | low polyreactivity |
| QVQLVESGGGLVQAGGSLRLSCAASGITVDYYVMGWYRQAPGKERELVASIDSGGRTKYADSVKGRFTISRDNAKNTVYLQMNILKPEDTAVYYCAARSYVFRSRWIRWPKYWGQGTQVTVSS | high polyreactivity |
| QVQLVESGGGLVQAGGSLRLSCAASGLSFSYYAMVWYRQAPGKERELVAAITSSGGNTYYADSVKGRFTISRDNANNTVYLQMNSLKPEDTAVYYCNDRRYLRGYGYGYWGQGTQVTVSS | high polyreactivity |
| QVQLVESGGGLVQAGGSLRLSCAASGRIFGWYAMGWYRQSPGKERELVAAITGSGSRTYYADSVKGRFTISRDNAKNTVYLQMNSLKPEDTAVYYCAVPTRRRRIYDYWGQGTQVTVSS | high polyreactivity |
| QVQLVESGGGLVQAGGSLRLSCAASGYIFKNYAMGWYRQAPGKERELVAAITRRGASTYYADSVKGRFTISRDNAKNTVYLQMNSLKPEDTAVYYCAAYPWPPGEYDYWGQGTQVTVSS | low polyreactivity |
| QVQLVESGGGLVQAGGSLRLSCAASGRNFWDYAMGWYRQAPGKERELVAGISYSGGSTSYADSVKGRFTISRDNAKNTVYLQMNSLKPEDTAVYYCAAGPSGTFFRDYDYWGQGTQVTVSS | low polyreactivity |
| QVQLQESGGGLVQAGGGLRLSCAESGTISGPHVMRWYRQATGKEREFVAAINVGAYTYYADNVKGRFTISRDNEKNTVYLQMNSLKPEDTAFYYCAAFARYSRRYYYWGQGTQVTVSS | low polyreactivity |
| QVQLVETGGGLFQAGGSLRLSCAPCGSIFFSIAMGWYRQAPGKDRELVAAIDSGASSTYADSVKGRFTSSRDHAKNTVYLQINSLKPEDTAVYYFAADYPATGADGYDYWGQVTQVTVSS | low polyreactivity |
| QVQLVESGGGLVQAGGSLRLSCAASGYTFGVYVMGWYRQAPGKERELVAAISGSTYYADSVKGRFTISRDNAKNTVYLQMNSLKPEDTAVYYCAAESYFFSPRTREKFDYWGQGTQVTVTS | low polyreactivity |
| QVQLVESGGGLVQAGGSLRLSCDDSGTFFMGWNIPAPRKERELVAGISISDGSTYYADSVKGRFTISRDNAKNSVYLQMNSLKPEDTAVYYCAADSHYLYDYWGQGTQVTVSS | low polyreactivity |
| QVQLVESGGGLVQAGGSLRLSCAASGTFVTYMGWSRQAPGKERELVAAIRNGGSTNNADTVKGRFTISRDNAKNTVYLQMNSLIPEDTAVYYCAPRFTYSRGYRGGSRTKYDYWGQGTQVTVSS | low polyreactivity |
| QVQLVESGGGLVQAGGSLRLSCAASGFIILIYAMGWYRQAPGKERELVATIRYSGGRTYYADSVKGRFTISRDNAKNTVFLQMNSLKPEDTAVDYCAADGYPTLYDYWGQGTQVTVSS | high polyreactivity |
| QVQLVESGGGLVQAGGSLRLICAASGFTFADNSMAWYRQAPGKEREFVASITYSTGSTYADSEKGRVTISRDNAKNTVYLEMHSLKPEDTAVYYCAVDNISNWAVENDDWGQGTLVTVSS | low polyreactivity |
| QVQLVESGGGLVQAGGSLRLSCAASGSIFFRNAMGRYRPAPGKERELVAAISKSGGSTYYADSVKGRFTISRDNAKNTVYLQMNSLKPEDTAVYYCAAERTFLYWAYDYWGQGTQVTVSS | high polyreactivity |
| QVQLVESGGGLVQAGGSLRLSCAASGSIFGGYAMGWYRPAPGKERELVAAIDESGGSTYYADSVKGRFTISRDNAKNTVYLQMNSLKPEDTAVYYCLVFRDDSGPGDYYYWGQGTQVTVSS | low polyreactivity |
| QFQLVESGGGLVQAGGSLRLRCAPSGNTLIVKAMGWYRQAPGKEMELVAAITRDGRTNYADSVKGRFTISRDNAKNTVYLQMNSLKPEDTAVYYCAAEGVPDALDRDYWGQGTQVTVSS | low polyreactivity |

| Sequence | polyreactivity (PSR sort gate) |
| --- | --- |
| QVQLVESGGGLVQAGGSLRLSCAASGFTFRSNAMGWSRQAPGKERELVAAISYSGGDTYYADSVKGRFTISRDNAKNTVYLQMNSLKPEDTAVYYCAADDPASPLGEYWGQGTQVSVSS | low polyreactivity |
| QVKLVESGGGLVQAGGSLRLSCAASGNIFSIYAMGWYRQAPGKERELVAAITARGGRTYYADSVKGRFTFSRDNAKNTVYLQMNSLKPEDTAVYYCNAVRSTKGYWVPFGGDYWGQGTQGTVSS | low polyreactivity |
| QVQLVESGGGLVQAGGSLRLSCAASGFIFPNKAMGWYRQAPGKERELVARISYGGGDTHYADSVKGRFTISRDNAKNTVYLQMNSLKPEDTAVYYCSYYYWGQGTQVTVSS | low polyreactivity |
| QVQLVESGGGLVQAGGSLRLSCAASGRTSHRNVMGWYRQAPGTEREVVARISRSGGRTYYADSVKGRFTISRDNAKNTVYSQMNSLKPEDTAVYYCNADYSSRGANYDYWGQGTQVTVSS | high polyreactivity |
| QVQLVESGGGLVQAGGSLRLSCAASGFTFYANAMGWYRQAPGKERELVAAISWSGGRTYYADSVKGRFTISRDNAKNTVYLQMNSLKPEDTAVYYCAAKRWTTKNGFYEYPYYYWGQGTQVTVSS | high polyreactivity |
| QVQLVESGGGLVQAGGSLRLSCAASGLTLRYYVMGWYRQAPGKERELVASITRSGGSTSYADSVKGRFTISRDNAKNTVYLQMNSLQPEDTAVYYCNRRTYVGTRASFLYYYWGQGTQVTVSA | high polyreactivity |
| QVQLVESGGGLVQAGGSLRLSCAASGFTFFKYAMGWYRQAPGKERELVAAITRNGGRTYYADSVKGRFTISRDNAKNTVYLQMNSLKPEDTAVYYCAAVQYRYGGMDYWGQGTQVTVSS | high polyreactivity |
| QVQLVESGGGLVQAGGSLRLSCAASGSIFRLNAMGWYRQAPGKERELVAAIDGSDGSTYYADSVKGRFTISRDNAKNTVYLQMNSLKPEDTAVYYCAAERGYPTDYYSGSDDYWGQGTQVTVSS | low polyreactivity |
| QVQLVESGGGLVQAGGSLRLSCAASGRTLDIYTMGWYRQAPGKERELVAAISWSGGSTYYADSVKGRFTISRDNAKNTVYLQMNSLKPEDTAVYYCNRVPISYAGQLEHSLYDFWGQGTQVTVSS | low polyreactivity |
| QVHLVESGGGLVQAGVSLRLSCAASGRTVVNAMGWYRQAPGKERELVAAISSNGGRTYYADSVKGRFTISRDNAKHSVYLQMNSLKPEDTAVYYCAAYNTHRYDYWGQGTQVTVSS | high polyreactivity |
| QVQLVESGGGLVQAGGSLRLSCAASGRIFVGNTMGWYRQAPGKERELVAAITRSGGSTYYADSAKGRFTISRDNAKNTVYLQMNSLKPEDTAVYYCAARRRGDYWGQGTQVTVSS | high polyreactivity |
| QVQLVESGGGLVQAGGSLRLSCAASGSTFENYAMGWSRQAPGKERELVAAISWSGGSTYYADSVKGRFTISRDNAKNTVYLQMNSLKPEDTAVYYCNAELYLRWGVTVTFDYWGQGTQVTVSS | low polyreactivity |
| QVQLVESGGGLVQAGGSLRLSCAASGFTFRYYAMGWYSQAPGKERELVAAITRSGGSTYYADSVKGRFTISRDNAKNTVYLQMNSLKPDDTGVYYCAARGHYRDGDEYWGQGTEVTVSS | high polyreactivity |
| QVQLVESGGGLVQAGGSLRLSCAASGFIFLYNAMGWYRQAPGKERELVATISTGGDTTYADSVKGRFTISRDNAKNTVYLQMNSVKPEDTAVYYCAKLDLSIFRWDTEFGLYDYWGQGTQVTVLS | low polyreactivity |
| QVQLVESGGGLVQAGGSLRLSCAASGLTFYYYAMGWYRQAPGKERELVAGISGSDGSTYYADSVKGRFTISRDNAKNTVYLQMNSLKPEDTAVYYCAAEYYYPWPLYYITDGIYDMYYWGQGTQVTVSS | low polyreactivity |
| QVQLVESGGGLVQAGGSLRLSCAASGFTFKQNAMGWYRQAPGKERELVAAITRTGASTYYADSVKGRFTISRDNAKNTVYLQMNSLKPEDTAVYYCNAARRGSAYDYWGQGTQVTVSS | high polyreactivity |
| QVQLVESGGGLVQAGGSLRLSCAASGFILLYYAMGWYRQAPGKERELVAAISWTGGRTYYADSVKGRFTISRDNAKNTVYLQMNSLKPEDTAVYYCNTVKFFGRKYGYWGQGTQVTVSS | low polyreactivity |
| QVQLVESGGGLVQAGGSLRLSCAASGRILTSNAMGWYRQAPGKERELVAAISWSGGSTYYADSVKGSFTISRDNAKNTVYLQMNSLKPDDSAVYYCAAPFTTTFDYSGQGTQVTVSS | low polyreactivity |
| QVQLVESGGGLVQAGGSLRLSCAASGRIFASYAMGWYRQAPGKERELVAAISWSGGSTNYADSVKGRFTISRDNAKNTVYLQMNRLKPEDTAVYYCAKKKRRGYGYDYWGQGTQVTVSS | high polyreactivity |
| QVQLVESGGGLVQAGGSLRLSCAASGSIFDWNAMGWYRQAPGKERELVAAIRRGGSTYYADSVKGRFTISRDNAKNTVYLQMNSLKPEDTAVYYCATRFYSRYYILDYDYWGQGTQLTVSS | high polyreactivity |
| QVQLVESGGGLVQAGGSLRLSCAASGSSFPRYAMAWYTPAPGKERELVAAISSGGSTYYADSVKGRFTISRDNAKNTVYLQMNSLKPEDTAVYYCTARRSRSRYDYWGQVTQVTVSS | high polyreactivity |
